{"source": "paper PMC10286996", "target": "slipper limpet hemocyanin (Crepidula fornicata) (Crepidula fornicata)", "assay": "cryo-EM structure; SLH (ion exchange flow-through) at 15 mg/ml, Chameleon grids, Glacios microscope, Relion 3.1; didecamer built with d5, tridecamer with c5 symmetry", "note": "Values joined by “and” are separate entries in the source; they are usually repeats but may differ in a detail not shown here. Equal values may be shown once."}
{"substance": "slipper limpet hemocyanin (Crepidula fornicata) (natural protein)", "values": [{"measurement": "stoichiometry N", "value": "20 and 30"}]}
